Key:
[1] = target: Angioensin Converting Enzyme (ACE)
[2] = target: Angioensin Converting Enzyme (ACE); remark: listed apart in the source

Substance	Inhibitory activity of hydrolysate (%) [1] [%]	ACE inhibitory activity (%) [2] [%]
AS1.398 neutral protease hydrolysate of ginkgo protein (pool or library)	87.4	
Alcalase hydrolysate of ginkgo protein (pool or library)	80.4	
papain hydrolysate of ginkgo protein (pool or library)	73.2	

Now from value to substance:

Inhibitory activity of hydrolysate (%) [1] [%]	ACE inhibitory activity (%) [2] [%]	Substance
	56.2	Over 10 kDa concentrated solution of ginkgo protein hydrolysate (pool or library)
	85.3	Ultrafiltrate below 3 kDa of ginkgo protein hydrolysate (pool or library)
	72	Ultrafiltrate of 3-10 kDa of ginkgo protein hydrolysate (pool or library)
61.3		trypsin hydrolysate of ginkgo protein (pool or library)

Source: US12102661B2
